Reference: publication doi:10.1101/2022.02.08.479534, “FoxP3 can fold into two distinct dimerization states with divergent functional implications for T cell homeostasis” (bioRxiv, 2022)

Legend:
[1] = target: T1, MBP-tagged FoxP3^RBR-forkhead (mouse, UniProt Q99JB6 284-423); assay: pull-down; MBP pull-down: MBP-FoxP3^RBR-forkhead 1 μM with GST-Runx1(371-451) 0.5 μM, with or without 2 μM DNA (IR-FKHM^4g or single FKHM), 30 min at room temperature in RIPA buffer; settings: both partners purified
T1 construct: FoxP3, mouse, RBR-forkhead, residues 284-423; cloned into a modified pMAL-c2 vector; also called MBP-FoxP3^RBR-forkhead; His6-MBP fused FoxP3^RBR-forkhead; source: E. coli BL21(DE3), purified (Ni-NTA, Superdex 200)
T1 sequence (looked up): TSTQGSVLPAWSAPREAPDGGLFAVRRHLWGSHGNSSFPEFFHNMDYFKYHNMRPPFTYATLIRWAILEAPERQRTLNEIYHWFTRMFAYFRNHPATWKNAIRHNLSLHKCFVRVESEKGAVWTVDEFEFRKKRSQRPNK

[2] = target: the molecule itself; assay: SEC-MALS; NusA-fused proteins on Superdex 200 Increase 10/300; 20 mM Tris pH 7.5, 500 mM NaCl, 2 mM DTT; miniDAWN MALS and Optilab dRI detectors
[3] = target: the molecule itself; assay: cross-linking; 2 μM FoxP3^forkhead with 100 μM BMOE in 1x PBS, 1 h at 25°C, quenched with 10 mM DTT; SDS-PAGE, Krypton stain

B1: GST-tagged Runx1 (residue 371-451) (domain or fragment, mouse, UniProt Q03347 371-451, looked up)
chain: GSPSYHLYYGASAGSYQFSMVGGERSPPRILPPCTNASTGAALLNPSLPSQSDVVETEGSHSNSPTNMPPARLEEAVWRPY
notes: cloned into pGEX-6P-1; also called Runx1^ΔN; source: E. coli BL21(DE3), purified (Ni-NTA, Superdex 200)
B1: binds [1].

B2: NusA-tagged FoxP3^RBR-forkhead R337Q (domain or fragment, mouse, UniProt Q99JB6 284-423, looked up)
chain: TSTQGSVLPAWSAPREAPDGGLFAVRRHLWGSHGNSSFPEFFHNMDYFKYHNMQPPFTYATLIRWAILEAPERQRTLNEIYHWFTRMFAYFRNHPATWKNAIRHNLSLHKCFVRVESEKGAVWTVDEFEFRKKRSQRPNK
notes: FoxP3, mouse, RBR-forkhead, residues 284-423 with the IPEX mutation R337Q; R337Q is a mutation of human IPEX patients, here put into the mouse protein; also called R337Q FoxP3^RBR-forkhead; FoxP3^RBR-forkhead with R337Q; source: E. coli BL21(DE3), purified (Ni-NTA, Superdex 200), HRV3C cleavage omitted; not shown: His6, N-terminal, kept; NusA, N-terminal, kept
For B2, the “stoichiometry N” value [2] was 2.

B3: NusA-tagged FoxP3^RBR-forkhead Y373V (domain or fragment, mouse, UniProt Q99JB6 284-423, looked up)
chain: TSTQGSVLPAWSAPREAPDGGLFAVRRHLWGSHGNSSFPEFFHNMDYFKYHNMRPPFTYATLIRWAILEAPERQRTLNEIYHWFTRMFAVFRNHPATWKNAIRHNLSLHKCFVRVESEKGAVWTVDEFEFRKKRSQRPNK
notes: FoxP3, mouse, RBR-forkhead, residues 284-423 with the IPEX mutation Y373V; Y373V is a mutation of human IPEX patients, here put into the mouse protein; also called Y373V FoxP3^RBR-forkhead; source: E. coli BL21(DE3), purified (Ni-NTA, Superdex 200), HRV3C cleavage omitted; not shown: His6, N-terminal, kept; NusA, N-terminal, kept
For B3, the “stoichiometry N” value [2] was 4.

B4: NusA-tagged FoxP3^ΔN (domain or fragment, mouse, UniProt Q99JB6 188-423, looked up)
chain: GSYPLLANGVCKWPGCEKVFEEPEEFLKHCQADHLLDEKGKAQCLLQREVVQSLEQQLELEKEKLGAMQAHLAGKMALAKAPSVASMDKSSCCIVATSTQGSVLPAWSAPREAPDGGLFAVRRHLWGSHGNSSFPEFFHNMDYFKYHNMRPPFTYATLIRWAILEAPERQRTLNEIYHWFTRMFAYFRNHPATWKNAIRHNLSLHKCFVRVESEKGAVWTVDEFEFRKKRSQRPNK
notes: FoxP3, mouse, ZF, CC, RBR and forkhead, residues 188-423; source: E. coli BL21(DE3), purified (Ni-NTA, Superdex 200), HRV3C cleavage omitted; not shown: His6, N-terminal, kept; NusA, N-terminal, kept
In the case of B4, the “stoichiometry N” value [2] is reported as 2.

B5: NusA-tagged FoxP3^forkhead (domain or fragment, mouse, UniProt Q99JB6 336-423, looked up)
chain: MRPPFTYATLIRWAILEAPERQRTLNEIYHWFTRMFAYFRNHPATWKNAIRHNLSLHKCFVRVESEKGAVWTVDEFEFRKKRSQRPNK
notes: FoxP3, mouse, forkhead domain, residues 336-423; NusA (60 kDa) kept for SEC-MALS; also called isolated FoxP3 forkhead; source: E. coli BL21(DE3), purified (Ni-NTA, Superdex 200), HRV3C cleavage omitted; not shown: His6, N-terminal, kept; NusA, N-terminal, kept
For B5, the “stoichiometry N” value [2] was 2.

B6: FoxP3^forkhead C394S T368C (swap dimer-specific X-linking construct) (domain or fragment, mouse, UniProt Q99JB6 336-423, looked up)
chain: MRPPFTYATLIRWAILEAPERQRTLNEIYHWFCRMFAYFRNHPATWKNAIRHNLSLHKSFVRVESEKGAVWTVDEFEFRKKRSQRPNK
notes: FoxP3, mouse, forkhead, residues 336-423 with C394S and T368C; source: E. coli BL21(DE3), purified (Ni-NTA, HRV3C cleavage, Superdex 75); not shown: His6, N-terminal, cleaved; NusA, N-terminal, cleaved
B6: binds [3].
